# Test results from US20250122303A1, “TREATMENT AND PREVENTION OF CANCER USING HER3 ANTIGEN-BINDING MOLECULES” (Hummingbird Bioscience Pte. Ltd., priority 2021, published 2025).
# Experiments:
# [1] = target: human HER3:human NRG1 complex (human) (UniProt P21860); assay: BLI (Octet QK384), antibody captured on AHC sensors, HER3-NRG1 complex (1:1 molar ratio) in solution
# [2] = target: His-tagged human HER3 (human) (UniProt P21860); assay: BLI competition: His-tagged human HER3 on anti-Penta-HIS tips saturated with LJM-716 (400 nM), then MM-121 as competing antibody (300 nM); no unit in the table, the y axis of FIG. 14A is Shift (nm)
# [3] = target: recombinant biotinylated human HER3 protein (human) (UniProt P21860); assay: plate ELISA dimerisation assay; human EGFR-His coated, constant HER3-biotin and NRG, antibody varied; blocked partner EGFR-His
# FcgRIIA (R167) (human) = FcgRIIA (R167) (human) (UniProt P12318); assay: Bio-Layer Interferometry (determined as described in Example 7)
# [4] = target: His-tagged FcγRIIIa (V158) (human) (UniProt P08637); assay: as above
# FcRn (human) = FcRn (human) (UniProt P55899); assay: as above
# FcgRIIA (H167) (human) = FcgRIIA (H167) (human) (UniProt P12318); assay: as above
# moFcRn (mouse) = moFcRn (mouse) (UniProt Q61559); assay: as above
# FcgRIIB (human) = FcgRIIB (human) (UniProt P31994); assay: as above
# FcgRIIB (human), sequence (P31994 46-217 limits assumed): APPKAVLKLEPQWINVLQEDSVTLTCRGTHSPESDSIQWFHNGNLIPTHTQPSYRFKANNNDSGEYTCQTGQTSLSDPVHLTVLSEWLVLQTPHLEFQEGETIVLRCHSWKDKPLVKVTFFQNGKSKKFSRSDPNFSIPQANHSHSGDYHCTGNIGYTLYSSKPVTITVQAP
# FcgRIIA (R167) (human), sequence (P12318 36-218 H167R limits assumed): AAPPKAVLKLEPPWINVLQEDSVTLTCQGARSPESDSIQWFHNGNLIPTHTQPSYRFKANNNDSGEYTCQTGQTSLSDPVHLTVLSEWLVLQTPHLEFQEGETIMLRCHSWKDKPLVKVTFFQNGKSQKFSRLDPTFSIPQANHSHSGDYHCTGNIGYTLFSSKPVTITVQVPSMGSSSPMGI
# FcgRIIA (H167) (human), sequence (P12318 36-218 limits assumed): as the sequence (P12318 36-218 H167R limits assumed) above, with R132H counted along it
Kd [1],response of the competing antibody (competition table) [2],IC50 [3],Kd (FcgRIIA (R167) (human)),Kd [4],Kd (FcRn (human)),Kd (FcgRIIA (H167) (human)),Kd (moFcRn (mouse)),Kd (FcgRIIB (human)),koff [1],kon [1],Binder
16.8 nM,,,,,,,,,,,"LJM716 (antibody, INN chains, looked up, human IgG1, V domains shown) VH: EVQLLESGGGLVQPGGSLRLSCAASGFTFSSYAMSWVRQAPGKGLEWVSAINSQGKSTYYADSVKGRFTISRDNSKNTLYLQMNSLRAEDTAVYYCARWGDEGFDIWGQGTLVTVSS VL: DIQMTQSPSSLSASVGDRVTITCRASQGISNWLAWYQQKPGKAPKLLIYGASSLQSGVPSRFSGSGSGTDFTLTISSLQPEDFATYYCQQYSSFPTTFGQGTKVEIK"
1.92 nM,0.693,54.2 nM,243 nM,7050 nM,11.5 nM,222 nM,6.69 nM,1440 nM,0.000231 s⁻¹,120000 M⁻¹ s⁻¹,"MM-121 (antibody, INN chains, looked up, human IgG2) heavy: EVQLLESGGGLVQPGGSLRLSCAASGFTFSHYVMAWVRQAPGKGLEWVSSISSSGGWTLYADSVKGRFTISRDNSKNTLYLQMNSLRAEDTAVYYCTRGLKMATIFDYWGQGTLVTVSSASTKGPSVFPLAPCSRSTSESTAALGCLVKDYFPEPVTVSWNSGALTSGVHTFPAVLQSSGLYSLSSVVTVPSSNFGTQTYTCNVDHKPSNTKVDKTVERKCCVECPPCPAPPVAGPSVFLFPPKPKDTLMISRTPEVTCVVVDVSHEDPEVQFNWYVDGVEVHNAKTKPREEQFNSTFRVVSVLTVVHQDWLNGKEYKCKVSNKGLPAPIEKTISKTKGQPREPQVYTLPPSREEMTKNQVSLTCLVKGFYPSDIAVEWESNGQPENNYKTTPPMLDSDGSFFLYSKLTVDKSRWQQGNVFSCSVMHEALHNHYTQKSLSLSPG light: QSALTQPASVSGSPGQSITISCTGTSSDVGSYNVVSWYQQHPGKAPKLIIYEVSQRPSGVSNRFSGSKSGNTASLTISGLQTEDEADYYCCSYAGSSIFVIFGGGTKVTVLGQPKAAPSVTLFPPSSEELQANKATLVCLVSDFYPGAVTVAWKADGSPVKVGVETTKPSKQSNNKYAASSYLSLTPEQWKSHRSYSCRVTHEGSTVEKTVAPAECS"
